According to patent publication US20220112288A1 (published 2022):

Columns and labels:
human CD4 on human PBMCs [1] = target: T1, human CD4 on human PBMCs (human, UniProt P01730 26-458); experiment: FACS, clonal hybridoma supernatant on PBMCs
T1 construct: whole, on cells; the CD4-positive gate was set with the control antibodies OKT4 and RPA-T4; also called hCD4

human CD4 on human PBMCs [2] = target: T2, human CD4 on human PBMCs (human, UniProt P01730 26-458); experiment: FACS, clonal hybridoma supernatant on PBMCs
T2 construct: whole, on cells; also called hCD4

% CD4 Stain (human CD4 on human PBMCs [1]) [%]	gMFI of CD4+ (human CD4 on human PBMCs [1]) [gMFI]	% CD4 Stain (human CD4 on human PBMCs [2]) [%]	gMFI of CD4+ (human CD4 on human PBMCs [2]) [gMFI]	Binder
35.6	149000			75110_04K10A (antibody, V domains shown, Tested as clonal hybridoma supernatant of an AlivaMab Mouse Kappa antibody (human variable regions, kappa; detected with anti-mouse Fc)) VH: EVQLVESGGGLVQPGGSLRLSCAASGFTFSSYWMSWVRQAPGKGLEWVANINQDGSEKYYVDSVKGRFTISRDNAKNSLYLQLNSLRAEDTAMYYCAREGGQWLSLDYWGQGTLVTVSS VL: DIQMTQSPSSVSASVGDRVTITCRASQGISSWLAWYQQKPGKAPKVLIYGVSSFQSGVPSRFSGSGSGTDFILTISSLQPEDFATYYCQQANSFPWTFGQGTKVEIK
55.8	135000			75110_05B13A (antibody, V domains shown, Tested as clonal hybridoma supernatant of an AlivaMab Mouse Kappa antibody (human variable regions, kappa; detected with anti-mouse Fc)) VH: QVLLEQWGAGLLKPSETLSLTCAVYGGSFSGYYWTWIRQPPGKGLEWIGEINHRGSTNYNPSLKSRVTISIDTSKNQFSLKVKSVTAADTAMYYCTRPDSNWFDPWGQGTLVTVSS VL: DIQMTQSPSSVSASVGDRVTITCRASQDISNWLAWYQQKPGKAPKLLIFAASSLQSGVPSRFSGSGSGTDFTLTISSLQPEDFATYYCQQANSFPLTFGGGTKVEIK
		37.3	189000	75110_07B16A (antibody, V domains shown) VH: QVQLQQWGAGLLKPSETLSLTCAVYGGSFSGYYWSWIRQSPGKGLEWIGEINQSGSTNYNPSLKSRVTISVDTSKDQFSLKLSSVTAADTAVYYCARVINWFDSWGQGSLVTVSS VL: DIQMTQSPSSVSASVGDRVTITCRASQGISSWLAWYQQKPGKAPKLLIYDASSFQSGVPSRFSGSGSGTDFTLTISSLQTDDFATYYCQQANSFPYTFGQGTKLEIK
37.1	155000			75110_05F19A (antibody, V domains shown, Tested as clonal hybridoma supernatant of an AlivaMab Mouse Kappa antibody (human variable regions, kappa; detected with anti-mouse Fc)) VH: EVQLVESGGGLVQPGGSLRLSCAASGFTFSNYDVHWVRQPTGKGLEWVSTIGTAGDTYYPGSVKGRFTISRENAKNSLYLQMNSLRAGDTAVYYCARGGYDYYGLDVWGQGTTVTVSS VL: not shown
31.8	64000			75110_05E05A (antibody, V domains shown, Tested as clonal hybridoma supernatant of an AlivaMab Mouse Kappa antibody (human variable regions, kappa; detected with anti-mouse Fc)) VH: QVQLQESGPGLVKPSETLSLTCTVSGGSIGSYYWSWIRQPAGKGLEWIGRIYTSGSTNYNPSLKSRVTMSFDTSKNQFSLKLNSVTAADTAVYYCATDGGVGDSLDYWGQGTLVTVSS VL: DIVMTQTPLSLPVTPGEPASISCRSSQSLLDSDDGNTYLDWYLQKPGQSPQLLIYTLSYRASGVPDRFSGSGSGTDFTLKISRVEAEDVGVYYCMQHIEFPFTFGPGTKVDIK
35.9	246000			75110_05A11A (antibody, V domains shown, Tested as clonal hybridoma supernatant of an AlivaMab Mouse Kappa antibody (human variable regions, kappa; detected with anti-mouse Fc)) VH: EVQLVESGGGLVKPGGSLTLSCAASGFTFSNTWMSWVRQAPGKGLEWVGRIKSKIDGGTTDYAAPVKGRFTISRDDSKNTLYLQMNSLKTEDTAVYYCTTSGTYSSGWGLFDYWGQGTLVTVSS VL: DIQMTQSPSSLSASVGDRVTITCQASQDISNYLNWYQQKPGKAPKLLIYDTSNLEAGVPSRFSGSGSGTHFTLTISSLQPEDIATYYCQQYDNLPFTFGGGTRVEIK
		34.8	307000	75110_06G04A (antibody, V domains shown) VH: QVQLLESGPGLVKPSETLSLTCTVSGGSISSYYWSWIRQPAGKGLEWIGRIYISGSTNYNPSLKSRVTMSIDTSENQFSLNLSSVTAADTAVYYCARELERPYYYGMDVWGQGTTVTVSS VL: DIQMTQSPSSLSASVGDRVTITCQASQDISNYLNWYQQKPGKAPKLLIYNASTLETGVPSRFSGSGSGTDFTFTISSLQPEDIATYYCQQYDNLPLTFGGGTKVEFK
		31.7	225000	75110_06E14A (antibody, V domains shown) VH: QVQLQESGPGLVKPSETLSLTCTVSGGSISNYFWSWIRQPAGKGLEWIGRIYSSGNTNYNPSLKSRVTMSVDTSKNQFSLKLSSVTAADTAVYYCARDREDYYYYGMDVWGQGTTVTVSS VL: DIQMTQSPSSLSASVGDRVTITCQASQDISNYLNWYQQKPGKAPKLLIYGASILETGVPSRFTGSGSGTDFTFTISSLQPEDIATYYCQQYDSLPITFGQGTRLEIK
36.4	128000			75110_04P08A (antibody, V domains shown, Tested as clonal hybridoma supernatant of an AlivaMab Mouse Kappa antibody (human variable regions, kappa; detected with anti-mouse Fc)) VH: QVQLQQWGAGLLKPSETLSLTCAVYGGSLSGYYWSWIRQSPGKGLEWIGEINQSGSTNYNPSLKSRVTISVDTSKDQFSLRLTSVTAADTAVYYCTRVLNWFDPWGRGTLVTVSS VL: DIQMTQSPSSVSASVGDRVTLTCRASQDISNWLAWYQQKPGKAPKLLIYAASSLQSGVPSRFSGSGSGTDFTLTISSLQTEDFATYYCQQANSFPYTFGQGTKLEIK

Further lines, the binder ahead of its results:

Binder	% CD4 Stain (human CD4 on human PBMCs [1]) [%]	gMFI of CD4+ (human CD4 on human PBMCs [1]) [gMFI]	% CD4 Stain (human CD4 on human PBMCs [2]) [%]	gMFI of CD4+ (human CD4 on human PBMCs [2]) [gMFI]
75110_05G15A (antibody, V domains shown) VH: QVQLQESGPGLVKPSQTLSLTCTVSGGSISSGGYFWSWIRQHPGKGLEWIGCIYYSGSTYYIPSLKSRVTISVDTSKNQFSLKLRSVTAADTAVYYCARDGYDYWYFDLWGRGTLVTVSS VL: not shown	31.6	326000		
75110_05E13A (antibody, V domains shown, Tested as clonal hybridoma supernatant of an AlivaMab Mouse Kappa antibody (human variable regions, kappa; detected with anti-mouse Fc)) VH: EVQLVESGGDLVKPGGSLRLSCAASGFSFSNAWMSWVRQAPGKGLEWVGRVESKTDGGTTDYAAPVKDRFTISRDDSKYTLYLQMNSLKTEDSAVYYCTIGGGFGLELYGFFDYWGQGTLVTVSS VL: DIQMTQSPSTLSASVGDRVTITCRASQSISSWLAWYQQKPGKAPMLLIYKASSLESGVPSRFSGSGSGTEFTLTISSLQPDDFATYYCLQYNSYYTFGQGTKLEIK	38.9	257000		
75110_05L07A (antibody, V domains shown, Tested as clonal hybridoma supernatant of an AlivaMab Mouse Kappa antibody (human variable regions, kappa; detected with anti-mouse Fc)) VH: EVQLVESGGGLVQPGGSLRLSCAASGFTFSSYWMSWVRQAPGKGLEWVANINQDGSDKYYVDSVKGRFTISRDNVKNSLYLQINSLRAEDTAVYYCAREGGQWLTLDYWGQGTLVTVSS VL: not shown	37.9	156000		
75110_06D16A (antibody, V domains shown, Tested as clonal hybridoma supernatant of an AlivaMab Mouse Kappa antibody (human variable regions, kappa; detected with anti-mouse Fc)) VH: QVQLQQWGAGLLKPSETLSLTCAVYGGSFSGYYWSWIRQPPGKGLEWIGEINHSGSTNYNPSLKSRVTISVVTSKNQFSLKLSSVTAADTAVYYCARVLNWFDPWGQGTLVTVSS VL: DIQMTQSPSSVSASVGDRVTITCRASQDIADWLAWYQQKPGKAPKLLIYAASSFQSGVPSRFSGSGSGTDFTLTISSLQPEDFATYFCQQANSFPYTFGQGTKLEIK	39.2	253000		
75110_04G16A (antibody, V domains shown, Tested as clonal hybridoma supernatant of an AlivaMab Mouse Kappa antibody (human variable regions, kappa; detected with anti-mouse Fc)) VH: QVQLQESGPGLVKPSQTLSLTCTVSGDSISSGYYYWSWIRQHPGKGLEWIGYISYSGSTYYNPSLKSRLTISVNTSKNQFSLKLSSLTAADTAVYYCARDRPSNFDAFDIWGQGTMVTVSS VL: EIVLTQSPGTLSLSPGERATLSCRASQSVGSTYLAWYQQKPGQAPRLLIYGAFSRATGIPDRFSGSGSGTDFTLTISRLEPEDFAVYYCQQYGSSPLTFGPGTKVDIK	36.3	240000		
75110_08H11A (antibody, V domains shown) VH: EVQLVESGGGLVQPGGSLRLSCAASGFTFSSYDMHWVRQATGKGLEWVSTIGTAGDTYYPGSVKGRFTISRENAKNSLYLQMNSLRAGDTAVYYCARGGYSYYGMDVWGQGTTVTVSS VL: EIVLTQSPGTLSLSPGERATLSCGASQSVSSTYLAWYQQKPGQAPRLLIYGASSRATGIPDRFSGSGSGTDFTLTISRLEPEDFAVYYCQQFGSSPFTFGPGTKVDIK			27.1	87000
75110_05K11A (antibody, V domains shown, Tested as clonal hybridoma supernatant of an AlivaMab Mouse Kappa antibody (human variable regions, kappa; detected with anti-mouse Fc)) VH: EVQLVESGGGLVQPGGSLRLSCAASGFTFSSYDMHWVRQPTGKGLEWVSTIGTAGDTYYPASVKGRFTISRENAKNSLYLQMNSLRAGDTAVYYCARGGFYYYGMDVWGQGTTVTVSS VL: EIVLTQSPGTLSLSPGERVTLSCRASQSVSNTYLAWYQQKPGQAPRLLIYGASSRATGIPDRFSGSGSGTDFTLTISRLEPEDFVVYYCQQHGSSPFTFGPGTKVDIK	38.1	112000		
75110_04H17A (antibody, V domains shown, Tested as clonal hybridoma supernatant of an AlivaMab Mouse Kappa antibody (human variable regions, kappa; detected with anti-mouse Fc)) VH: QVQLQESGPGLVKPSETLSLTCTVSGGSISTYYWSWIRQSAGKGLEWIGRIYTSERPNYNPSLKSRVTMSVDTSKNQFSLKLNSVSAADTAVYYCARELERPYYYGMDVWGQGTTVTVSS VL: DVQMTQSPSSLSASVGGRVTITCQASQDISNYLNWYQQKPGKAPKLLIYYASNLETGVPSRFSGSGSGTDFTFTISSLQPEDFATYYCQQYDNLPLTFGGGTKVEIK	28.8	151000		
75110_06C16A (antibody, V domains shown, Tested as clonal hybridoma supernatant of an AlivaMab Mouse Kappa antibody (human variable regions, kappa; detected with anti-mouse Fc)) VH: QVQLQESGPGLVTPSETLSLSCTVSGGSISDYYWSWIRQPGGKGLEWIGRIYSSGSTNYNPSLKSRVTMSVDTSKNQFSLKLSSVTAADTAVYFCARDREDYYYYGMDVWGQGTTVTVSS VL: DIQMTQSPSSLSASVGDRVTITCQASHDISNYLNWYQQKPGKAPKLLIYAASNLETGVPSRFSGSGSGTDFSFTISSLQPEDIATYYCQQYDHLPLTFGGGTKVEIK	33.1	270000		
75110_06K03A (antibody, V domains shown) VH: QVQLQESGPGLVKPSETLSLTCTVSGGSISTYYWSWIRQPAGKGLEWIGRINTSGSTTYNPSLKSRVTMSVDTSKNQFSLKLSSVTAADTAVYYCARELERYYYYGMDVWGQGTTVTVSS VL: DIQMTQSPSSLSASVGDRVTITCQASQDISNYLNWYQQKPGKAPKLLIYYASILETGVPSRFSGSGSGTDFTFTISSLQPEDIATYYCQQYDSLPLTFGGGTKVEIK			34	320000
75110_08D24A (antibody, V domains shown) VH: QVQLQESGPGLVKPSETLSLTCTVSGGSISGFYWSWIRQPAGKGLEWIGRIYTSENTNYNPSLKSRVTMSVDTSKNQFSLKLSSVTAADTAVYYCARDREGYYYYGMDVWGQGTTVTVSS VL: DIQMTQSPSSLSASVGDRVTITCQASQDISNYLNWYQQKPGKAPKLLIYAASNLETGVPSRFSGSGSGTDFTFTISSLQPEDIATYYCQQYDSLPITFGQGTRLEIK			33.6	332000
75110_08M20A (antibody, V domains shown) VH: QVQLQESDPGLVKPSETLSLTCTVSGGSISSYYWSWIRQPAGKGLEWIGRIYASGSTNYNPSLKSRVTMSVDTSKNQFSLKLSSVTAADTAVYYCARDREGYYYYGMDVWGQGTTVTVSS VL: DIQMTQSPSSLSASVGDRVTITCQASQDISKYLNWYQQKPGKAPNLLIYAASNLETGVPSRFSGSGSGTDFTFTISSLQPEDIAAYYCQQYDSLPITFGQGTRLEIK			34.1	343000
75110_04G02A (antibody, V domains shown, Tested as clonal hybridoma supernatant of an AlivaMab Mouse Kappa antibody (human variable regions, kappa; detected with anti-mouse Fc)) VH: not shown VL: DIVMTQSPDSLAVSLGERATINCKSSQSVLYSSNNKNYLAWYQQKPGQPPKLLFYWASARESGVPDRFSGSGSGTDFTLTISSLQAEDVALYYCQQYFGSFPTFGQGTKLEIK	38.5	187000		
